The text below walks through data of patent US10450368 (DUKE UNIVERSITY, dated 2019).

For assay [1], the target named is T1, SSB (UniProt P05455 1-408).
T1 sequence: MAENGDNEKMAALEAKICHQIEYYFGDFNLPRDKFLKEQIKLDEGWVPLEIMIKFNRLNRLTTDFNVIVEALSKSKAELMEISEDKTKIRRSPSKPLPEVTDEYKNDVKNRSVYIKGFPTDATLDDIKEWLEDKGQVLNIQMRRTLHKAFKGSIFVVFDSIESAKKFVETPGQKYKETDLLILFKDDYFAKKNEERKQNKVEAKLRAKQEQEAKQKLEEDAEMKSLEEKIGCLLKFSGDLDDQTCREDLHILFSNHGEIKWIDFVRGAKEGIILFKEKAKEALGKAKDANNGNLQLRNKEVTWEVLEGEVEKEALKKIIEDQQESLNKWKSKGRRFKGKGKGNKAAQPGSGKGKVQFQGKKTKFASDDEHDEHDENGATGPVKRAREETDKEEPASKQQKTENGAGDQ
Put plainly: AtheNA, Ab 25 ug/ml.

Assay [2] has as its target T2, Sm (Smith antigen).
T2 construct: Protein complex
Put plainly: AtheNA, Ab 25 ug/ml.

Assay [3] deals with T3, Histones.
T3 construct: Mixture of proteins
Put plainly: AtheNA, Ab 25 ug/ml.

In assay [4] the target is T4, RNP (ribonucleoprotein).
T4 construct: Protein-RNA complex
As to the kind of experiment: AtheNA, Ab 25 ug/ml.

Assay [5] has as its target T5, Scl-70 (UniProt P11387 1-765).
T5 sequence: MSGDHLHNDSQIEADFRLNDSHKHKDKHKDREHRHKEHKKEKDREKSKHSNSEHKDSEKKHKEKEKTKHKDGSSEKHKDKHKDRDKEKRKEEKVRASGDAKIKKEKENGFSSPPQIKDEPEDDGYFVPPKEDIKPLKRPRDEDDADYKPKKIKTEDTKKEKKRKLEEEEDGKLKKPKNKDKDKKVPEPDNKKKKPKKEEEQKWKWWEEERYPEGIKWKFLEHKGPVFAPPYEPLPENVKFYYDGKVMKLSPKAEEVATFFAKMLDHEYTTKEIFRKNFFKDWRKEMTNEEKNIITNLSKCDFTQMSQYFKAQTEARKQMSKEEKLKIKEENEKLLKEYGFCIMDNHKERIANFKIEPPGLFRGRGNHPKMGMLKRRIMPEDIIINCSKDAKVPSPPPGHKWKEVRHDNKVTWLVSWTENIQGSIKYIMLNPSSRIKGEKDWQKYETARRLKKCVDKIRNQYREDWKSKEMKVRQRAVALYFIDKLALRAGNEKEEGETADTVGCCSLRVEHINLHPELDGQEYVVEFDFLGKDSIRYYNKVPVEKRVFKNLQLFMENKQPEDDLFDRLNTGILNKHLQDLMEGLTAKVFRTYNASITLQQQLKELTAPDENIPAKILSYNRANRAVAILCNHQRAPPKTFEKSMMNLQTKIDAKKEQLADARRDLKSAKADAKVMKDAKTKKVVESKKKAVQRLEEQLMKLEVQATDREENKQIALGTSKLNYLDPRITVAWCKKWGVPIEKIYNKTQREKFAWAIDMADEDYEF
Put plainly: AtheNA, Ab 25 ug/ml.

In assay [6] the target is T1, SSB. Put plainly: AtheNA, Ab 25 ug/ml. The source holds these as a separate data set.
The target in assay [7] is T6, Jo-1 (UniProt P12081 1-509).
T6 sequence: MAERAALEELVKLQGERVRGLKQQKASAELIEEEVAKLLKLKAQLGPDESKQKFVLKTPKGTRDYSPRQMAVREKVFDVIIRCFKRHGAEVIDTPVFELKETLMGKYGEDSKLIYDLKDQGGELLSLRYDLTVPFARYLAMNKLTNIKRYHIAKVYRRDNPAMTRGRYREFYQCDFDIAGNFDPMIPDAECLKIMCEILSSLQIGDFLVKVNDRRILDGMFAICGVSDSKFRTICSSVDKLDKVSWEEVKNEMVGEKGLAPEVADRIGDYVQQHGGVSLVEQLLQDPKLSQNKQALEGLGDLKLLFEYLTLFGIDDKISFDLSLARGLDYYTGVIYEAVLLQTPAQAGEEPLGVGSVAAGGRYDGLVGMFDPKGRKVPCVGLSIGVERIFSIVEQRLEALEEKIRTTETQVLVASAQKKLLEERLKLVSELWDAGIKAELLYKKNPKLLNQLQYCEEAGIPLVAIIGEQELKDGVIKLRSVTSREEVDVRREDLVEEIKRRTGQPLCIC
Put plainly: AtheNA, Ab 25 ug/ml.

Assay [8] deals with T2, Sm (Smith antigen). As to the kind of experiment: AtheNA, Ab 25 ug/ml. The source holds these as a separate data set.
The target in assay [9] is T7, SSA.
T7 construct: also called SSA (Ro)
Put plainly: AtheNA, Ab 25 ug/ml.

The target of assay [10] is T3, Histones. Put plainly: AtheNA, Ab 25 ug/ml. The source holds these as a separate data set.
Assay [11] addresses T4, RNP (ribonucleoprotein). Put plainly: AtheNA, Ab 25 ug/ml. This is another data set of the same source.
Assay [12] has as its target T8, HIV-1 CH505 transmitted/founder gp120 Env (HIV-1).
T8 construct: domain: gp120; also called CH505.TF gp120; CH505 TF gp120 Env
Put plainly: competition ELISA, blocking of CH106 binding to gp120. For orientation: An ELISA detects its analyte on a solid surface through an enzyme-linked reagent.

Assay [13] addresses T8, HIV-1 CH505 transmitted/founder gp120 …. Put plainly: competition ELISA, blocking of sCD4 binding to gp120.
Assay [14] has as its target T5, Scl-70. As to the kind of experiment: AtheNA, Ab 6.25 ug/ml.
In assay [15] the target is T1, SSB. As to the kind of experiment: AtheNA, Ab 6.25 ug/ml.
Assay [16] addresses T6, Jo-1. As to the kind of experiment: AtheNA, Ab 6.25 ug/ml.
In assay [17] the target is T2, Sm (Smith antigen). Put plainly: AtheNA, Ab 6.25 ug/ml.
Assay [18] has as its target T7, SSA. Put plainly: AtheNA, Ab 6.25 ug/ml.
Assay [19] concerns the target T3, Histones. As to the kind of experiment: AtheNA, Ab 6.25 ug/ml.
For assay [20], the target named is T4, RNP (ribonucleoprotein). Put plainly: AtheNA, Ab 6.25 ug/ml.
In assay [21] the target is T5, Scl-70. As to the kind of experiment: AtheNA, Ab 12.5 ug/ml.
Assay [22] concerns the target T3, Histones. Put plainly: AtheNA, Ab 12.5 ug/ml.
Assay [23] has as its target T4, RNP (ribonucleoprotein). As to the kind of experiment: AtheNA, Ab 12.5 ug/ml.

B1: CH557 (antibody, V domains shown)
VH: QVRLAQYGGGVKRLGATMTLSCVASGYTFNDYYIHWVRQAPGQGFELLGYIDPANGRPDYAGALRERLSFYRDKSMETLYMDLRSLRYDDTAMYYCVRNVGTAGSLLHYDHWGSGSPVIVSS
VL: EIVLTQSPATLSASPGERVTLTCRASRSVRNNVAWYQHKGGQSPRLLIYDASTRAAGVPARFSGSASGTEFTLAISNLESEDFTVYFCLQYNNWWTFGQGTRVDIK
notes: also called CH235.12; CH557_4A/293i
For the molecule B1, the AtheNA signal in the assay with SSB [1] is 12 relative luminescence units; in the assay with Sm (Smith antigen) [2], 6 relative luminescence units; with Histones [3], 8 relative luminescence units; with RNP (ribonucleoprotein) [4], 6 relative luminescence units.

B2: CH235 (antibody, V domains shown)
VH: QVQLVQSGAEVKKPGASVTVSCQASGYTFTNYYVHWVRQAPGQGLQLMGWIDPSWGRTNYAQNFQGRITMTRDTSTSTVYMEMRSLRSEDTAVYYCARNVATEGSLLHYDYWGQGTLVTVSA
VL: EIVLTQSPATLSVSPGERATLSCRASQSVRSNLAWYQQRPGQAPRLLIYGTSTRATGVPARFSGRGSGTEFTLAISSMQSEDFAVYLCLQYNNWWTFGQGTKVEIK
notes: also called CH235_4A
By IC50 is commonly meant the point on the concentration scale where inhibition reaches its midpoint. High values mean weaker potency, low ones greater potency. Regarding B2, the AtheNA signal is 4 relative luminescence units with Scl-70 [5]; 5 relative luminescence units with SSB [6]; 4 relative luminescence units with Jo-1 [7]; 7 relative luminescence units with Sm (Smith antigen) [8]; 13 relative luminescence units in the assay with SSA [9]; 7 relative luminescence units with Histones [10]. Besides, the AtheNA signal with RNP (ribonucleoprotein) [11] was 5 relative luminescence units; in the assay with Scl-70 [14], 2 relative luminescence units; in the assay with SSB [15] it was 6 relative luminescence units; in the assay with Jo-1 [16], 2 relative luminescence units; in the assay with Sm (Smith antigen) [17], 5 relative luminescence units; with SSA [18] it was 12 relative luminescence units. In addition, the AtheNA signal in the assay with Histones [19] is 5 relative luminescence units; with RNP (ribonucleoprotein) [20], 3 relative luminescence units; with Scl-70 [21], 2 relative luminescence units; in the assay with Histones [22], 5 relative luminescence units; with RNP (ribonucleoprotein) [23], 6 relative luminescence units. Further, the half-maximal inhibitory concentration (IC50) in assay [12] was 16.5 mg/L; in [13], 26.3 mg/L.

B3: CH241 (antibody, V domains shown)
VH: QVQLVQSGAAVKKPGASVRVSCKASGYTFTSSHIHWVRQAPGQGPEWMGMIDPSVGRPTTAGKFQGRVTMTRDRYTSTAYMDLSSLRSEDTAVYYCARSVETTGSLLYFDYWGQGTLITVSS
VL: EIVLTQSPATLSVSPGERATLSCRASQSVRSNIAWYQQKPGQAPRLLIHGASTRATGIPGRFSGSGSGPEFTLAISSVQSEDFAVYYCQQYNDWWTFGQGTKVEIK
B3: the AtheNA signal with Scl-70 [5] was 4 relative luminescence units; with SSB [6] it was 6 relative luminescence units; in the assay with Jo-1 [7] it was 5 relative luminescence units; with Sm (Smith antigen) [8] it was 11 relative luminescence units; with SSA [9], 15 relative luminescence units; with Histones [10], 20 relative luminescence units. Besides, the AtheNA signal with RNP (ribonucleoprotein) [11] was 6 relative luminescence units; with Scl-70 [14], 1 relative luminescence units; with SSB [15] it was 4 relative luminescence units; in the assay with Jo-1 [16], 2 relative luminescence units; with Sm (Smith antigen) [17], 4 relative luminescence units; with SSA [18], 15 relative luminescence units. In addition, the AtheNA signal was 9 relative luminescence units in the assay with Histones [19]; 3 relative luminescence units with RNP (ribonucleoprotein) [20]; 3 relative luminescence units in the assay with Scl-70 [21]; 13 relative luminescence units with Histones [22]; 5 relative luminescence units in the assay with RNP (ribonucleoprotein) [23]. For the same molecule, the IC50 in assay [12] amounted to 1.5 mg/L; in [13] it was 2.6 mg/L.
